Reference: paper PMC5036643
Like-named read-outs stand apart in the source and are kept apart here.

Assays:
Test in all cases: single-molecule bead assay
[1] = target: Microtubules of porcine brain tubulin, tetramethylrhodamine-labelled, taxol-stabilised (porcine) (UniProt P02550)
[2] = target: Microtubules of porcine brain tubulin, tetramethylrhodamine-labelled, taxol-stabilised (porcine) (UniProt P02550); remark: listed apart in the source
[3] = target: Microtubules of porcine brain tubulin, tetramethylrhodamine-labelled, taxol-stabilised (porcine) (UniProt P02550); remark: listed apart in the source
[4] = target: Microtubules of porcine brain tubulin, tetramethylrhodamine-labelled, taxol-stabilised (porcine) (UniProt P02550); remark: listed apart in the source
[5] = target: Microtubules of porcine brain tubulin, tetramethylrhodamine-labelled, taxol-stabilised (porcine) (UniProt P02550); remark: listed apart in the source
[6] = target: Microtubules of porcine brain tubulin, tetramethylrhodamine-labelled, taxol-stabilised (porcine) (UniProt P02550); remark: listed apart in the source
[7] = target: Microtubules of porcine brain tubulin, tetramethylrhodamine-labelled, taxol-stabilised (porcine) (UniProt P02550); remark: listed apart in the source
[8] = target: Microtubules of porcine brain tubulin, tetramethylrhodamine-labelled, taxol-stabilised (porcine) (UniProt P02550); remark: listed apart in the source

average duration (time between attachment and detachment) [1]: 0.92 s | average duration (time between attachment and detachment) [2]: 1.19 s | average duration (time between attachment and detachment) [3]: 1.03 s | average duration (time between attachment and detachment) [4]: 1.53 s | average duration (time between attachment and detachment) [5]: 1.11 s | average duration (time between attachment and detachment) [6]: 0.69 s | average duration (time between attachment and detachment) [7]: 0.8 s | average duration (time between attachment and detachment) [8]: 1.01 s
Substance: Conventional kinesin (native, from bovine brain) (complex)
